The text below walks through data of US7326418B2, “Identification of novel factors that block programmed cell death or apoptosis by targeting JNK” (University of Chicago, priority 2001, dated 2008).

One experiment concerns the target T1, JNKK1 (Mus musculus, UniProt P47809).
T1 construct: plasmids encoding full-length (FL) human ASK1, MEKK4, JNKK1, and JNKK2; made in house; host or cells: TNT coupled reticulocyte lysate (Promega), in vitro transcription/translation from pBS
T1 sequence (P47809 2-397): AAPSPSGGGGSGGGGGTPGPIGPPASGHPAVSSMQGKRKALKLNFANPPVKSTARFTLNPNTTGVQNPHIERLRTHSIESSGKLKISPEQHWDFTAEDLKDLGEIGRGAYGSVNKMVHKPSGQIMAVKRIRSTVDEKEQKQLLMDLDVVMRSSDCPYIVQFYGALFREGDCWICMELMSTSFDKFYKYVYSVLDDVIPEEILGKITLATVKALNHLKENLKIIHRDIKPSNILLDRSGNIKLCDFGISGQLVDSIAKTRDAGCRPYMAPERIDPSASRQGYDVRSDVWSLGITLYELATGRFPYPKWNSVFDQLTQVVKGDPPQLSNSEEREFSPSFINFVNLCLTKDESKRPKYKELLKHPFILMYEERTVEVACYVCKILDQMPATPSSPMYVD
Nature of the experiment: GST pull-down, GST-Gadd45β beads with in vitro translated 35S-labeled JNKK1. Format: binding, murine. On the procedure:
(§1) To confirm the above interactions, in vitro, GST pull-down experiments were performed. pBluescript (pBS) plasmids encoding full-length (FL) human ASK1, MEKK4, JNKK1, and JNKK2, or polypeptides derived from the amino- or carboxy-terminal portions of ASK1 (i.e. N-ASK1, spanning from amino acids 1 to 756, and C-ASK1, spanning from amino acids 648 to 1375) were transcribed and translated in vitro using the TNT coupled retyculocyte lysate system (Promega) in the presence of ^35S-methionine. 5 μl of each translation mix were incubated, in vitro, with sepharose-4B beads that had been coated with either purified glutathione-S-transferase (GST) polypeptides or GST-Gadd45β proteins. The latter proteins contained FL murine Gadd45β directly fused to GST. Binding assays were performed according to standard procedures, and ^35S-labeled proteins that bound to beads, as well as 2 μl of each in vitro translation mix (input), were then resolved by SDS polyacrylamide gel electrophoresis. Asterisks indicate the intact translated products. […] Thus, GST pull-down experiments confirmed the strong interaction between Gadd45β and JNKK2 observed in vivo, as well as the weaker interactions of Gadd45β with other kinases in the JNK pathway. These assays also uncovered a weak association between Gadd45β and JNKK1. […]

In another experiment the target is T2, MEKK4 (Mus musculus, UniProt O08648).
T2 construct: plasmids encoding full-length (FL) human ASK1, MEKK4, JNKK1, and JNKK2; made in house; host or cells: TNT coupled reticulocyte lysate (Promega), in vitro transcription/translation from pBS
Nature of the experiment: GST pull-down, GST-Gadd45β beads with in vitro translated 35S-labeled MEKK4. It counts as binding, murine. On the procedure: as §1

T2 sequence (O08648 whole entry): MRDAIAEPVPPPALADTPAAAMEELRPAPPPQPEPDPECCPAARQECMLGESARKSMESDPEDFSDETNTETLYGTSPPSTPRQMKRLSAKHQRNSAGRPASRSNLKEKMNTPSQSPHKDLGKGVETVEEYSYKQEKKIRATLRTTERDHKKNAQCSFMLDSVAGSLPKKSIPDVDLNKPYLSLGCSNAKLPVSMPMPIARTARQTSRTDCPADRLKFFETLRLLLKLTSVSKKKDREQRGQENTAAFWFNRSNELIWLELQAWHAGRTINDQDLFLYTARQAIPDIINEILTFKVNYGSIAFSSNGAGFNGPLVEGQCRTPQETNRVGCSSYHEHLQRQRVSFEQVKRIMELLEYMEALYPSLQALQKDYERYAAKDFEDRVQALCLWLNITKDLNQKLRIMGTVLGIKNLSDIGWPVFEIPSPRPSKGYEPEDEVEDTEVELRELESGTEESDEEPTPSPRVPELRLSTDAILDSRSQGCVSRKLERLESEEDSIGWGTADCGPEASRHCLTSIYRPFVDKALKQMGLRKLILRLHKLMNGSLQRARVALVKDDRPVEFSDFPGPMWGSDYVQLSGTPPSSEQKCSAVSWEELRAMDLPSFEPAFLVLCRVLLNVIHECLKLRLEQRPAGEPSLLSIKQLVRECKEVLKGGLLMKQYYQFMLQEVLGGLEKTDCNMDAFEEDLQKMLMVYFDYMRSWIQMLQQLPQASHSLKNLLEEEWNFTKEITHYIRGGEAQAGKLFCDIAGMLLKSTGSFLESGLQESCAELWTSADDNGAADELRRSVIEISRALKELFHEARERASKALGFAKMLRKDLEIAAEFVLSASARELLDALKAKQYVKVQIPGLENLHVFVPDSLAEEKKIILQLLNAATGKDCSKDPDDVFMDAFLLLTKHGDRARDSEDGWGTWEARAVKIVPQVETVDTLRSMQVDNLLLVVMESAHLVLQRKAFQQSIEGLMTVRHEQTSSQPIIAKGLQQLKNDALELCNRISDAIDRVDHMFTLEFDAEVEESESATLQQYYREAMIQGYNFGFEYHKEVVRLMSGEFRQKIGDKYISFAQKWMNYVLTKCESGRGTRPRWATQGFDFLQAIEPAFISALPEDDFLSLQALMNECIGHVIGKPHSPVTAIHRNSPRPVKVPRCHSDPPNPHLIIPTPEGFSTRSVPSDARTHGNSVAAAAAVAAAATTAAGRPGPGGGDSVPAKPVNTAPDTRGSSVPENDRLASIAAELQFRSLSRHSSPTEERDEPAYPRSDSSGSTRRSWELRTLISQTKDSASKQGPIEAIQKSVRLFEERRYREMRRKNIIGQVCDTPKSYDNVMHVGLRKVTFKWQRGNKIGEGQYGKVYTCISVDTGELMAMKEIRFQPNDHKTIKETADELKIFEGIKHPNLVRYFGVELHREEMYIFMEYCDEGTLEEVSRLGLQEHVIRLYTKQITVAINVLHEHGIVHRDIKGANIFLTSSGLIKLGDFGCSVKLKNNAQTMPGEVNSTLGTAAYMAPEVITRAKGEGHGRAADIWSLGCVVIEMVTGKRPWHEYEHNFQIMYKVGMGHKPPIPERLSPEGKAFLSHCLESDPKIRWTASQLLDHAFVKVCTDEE

B1: GST-Gadd45β: full-length murine Gadd45β directly fused to GST, purified from E. coli (protein)
chain: MTLEELVASDNAVQKMQAVTAAVEQLLVAAQRQDRLTVGVYEAAKLMNVDPDSVVLCLLAIDEEEEDDIALQIHFTLIQSFCCDNDIDIVRVSGMQRLAQLLGEPAETLGTTEARDLHCLLVTNCHTDSWKSQGLVEVASYCEESRGNNQWVPYISLEER
modifications: left off: a dimerising Fc or GST
notes: full-length murine Gadd45β directly fused to GST, purified from E. coli
Take B1: the “association with JNKK1” value with JNKK1 is listed as “weakly”. Also, in the experiment with MEKK4, the “association with MEKK4” value is “less avidly than with JNKK2”.
